{"source": "paper PMC11733250", "about": "“Interplay of p23 with FKBP51 and their chaperone complex in regulating tau aggregation” (Nature Communications, 2025)", "binders": {"B1": {"name": "FKBP51 (natural protein, UniProt Q13451 1-457, looked up)", "chain": "MTTDEGAKNNEESPTATVAEQGEDITSKKDRGVLKIVKRVGNGEETPMIGDKVYVHYKGKLSNGKKFDSSHDRNEPFVFSLGKGQVIKAWDIGVATMKKGEICHLLCKPEYAYGSAGSLPKIPSNATLFFEIELLDFKGEDLFEDGGIIRRTKRKGEGYSNPNEGATVEIHLEGRCGGRMFDCRDVAFTVGEGEDHDIPIGIDKALEKMQREEQCILYLGPRYGFGEAGKPKFGIEPNAELIYEVTLKSFEKAKESWEMDTKEKLEQAAIVKEKGTVYFKGGKYMQAVIQYGKIVSWLEMEYGLSEKESKASESFLLAAFLNLAMCYLKLREYTKAVECCDKALGLDSANEKGLYRRGEAQLLMNEFESAKGDFEKVLEVNPQNKAARLQISMCQKKAKEHNERDRRIYANMFKKFAEQDAKEEANKAMGKKTSEGVTNEKGTDSQAMEEEKPEGHV", "notes": "FKBP51, 51 kDa, with the FK1, FK2 and TPR domains; all three domains and residues 426-457 are spoken of, which fits the whole 457-residue protein; Used unlabeled or with 13C-methyl (Leu, Val) labels; also called free FKBP51; LV-labeled FKBP51; source: grown in LB or M9 medium, IPTG-induced; purified (His-trap, HRV 3C cut of the His-tag, size exclusion chromatography)"}, "B2": {"name": "truncated p23 (1-119) (domain or fragment, human, UniProt Q15185 1-119, looked up)", "chain": "MQPASAKWYDRRDYVFIEFCVEDSKDVNVNFEKSKLTFSCLGGSDNFKHLNEIDLFHCIDPNDSKHKRTDRSILCCLRKGESGQSWPRLTKERAKLNWLSVDFNNWKDWEDDSDEDMSN", "notes": "p23, human, residues 1-119; the terminal 41 residues are deleted; Made by site-directed mutagenesis; also called truncated (1–119) mutant p23; C-terminal deletion mutant of p23; source: grown in LB or M9 medium, IPTG-induced; purified (His-trap, thrombin cut of the His-tag, size exclusion chromatography)"}, "B3": {"name": "p23 wild-type (human co-chaperone p23, 160 amino acids) (natural protein, UniProt Q15185 1-160, looked up)", "chain": "MQPASAKWYDRRDYVFIEFCVEDSKDVNVNFEKSKLTFSCLGGSDNFKHLNEIDLFHCIDPNDSKHKRTDRSILCCLRKGESGQSWPRLTKERAKLNWLSVDFNNWKDWEDDSDEDMSNFDRFSEMMNNMGGDEDVDLPEVDGADDDSQDSDDEKMPDLE", "notes": "p23, human, 160 amino acids: folded domain (residues 1-110) and disordered C-terminal tail (residues 111-160); Used unlabeled, 15N-labeled or deuterated/15N-labeled; also called p23 WT; full-length p23; source: grown in LB or M9 medium, IPTG-induced; purified (His-trap, thrombin cut of the His-tag, size exclusion chromatography)"}}, "settings_in_all_cases": "both partners purified", "key": {"[1]": {"molecular_target": "T1, 441-residue human 2N4R tau (human, UniProt P10636-8 1-441)", "T1 construct": "tau, human, 2N4R isoform, printed length 441 residues; Used unlabeled or 15N-labeled; source: grown in LB or M9 medium, IPTG-induced; purified (boiling, ammonium sulfate, Mono S ion exchange, reverse phase HPLC), lyophilized", "T1 sequence (P10636 other isoform, or with tags, fused parts or gaps)": "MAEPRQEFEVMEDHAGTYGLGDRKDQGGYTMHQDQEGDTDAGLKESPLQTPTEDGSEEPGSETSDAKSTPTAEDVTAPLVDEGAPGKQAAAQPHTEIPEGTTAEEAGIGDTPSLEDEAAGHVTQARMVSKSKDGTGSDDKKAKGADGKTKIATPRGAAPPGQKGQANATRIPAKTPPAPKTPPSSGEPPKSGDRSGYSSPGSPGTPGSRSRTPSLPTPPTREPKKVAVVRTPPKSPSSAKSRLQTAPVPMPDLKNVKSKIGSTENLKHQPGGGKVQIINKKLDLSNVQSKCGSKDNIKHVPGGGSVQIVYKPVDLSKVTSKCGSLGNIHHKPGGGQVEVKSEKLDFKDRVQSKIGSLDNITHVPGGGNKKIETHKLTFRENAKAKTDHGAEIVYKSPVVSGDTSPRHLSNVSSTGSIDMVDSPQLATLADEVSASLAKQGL", "assay": "cross-linking; p23:FKBP51:tau 1:1:1 (25 µM each), 1 mM DSS, 30 min at 25 °C; SDS-PAGE band above 220 kDa cut out, trypsin digest, mass spectrometry (pLink)"}, "[2]": {"molecular_target": "B1", "assay": "NMR titration; 1H-15N TROSY HSQC of deuterated 15N-labeled p23 (WT 40 µM, 1-119 25 µM, R88A R93A 40 µM); unlabeled FKBP51 added at equimolar to three-fold or five-fold molar excess; 25 mM HEPES, 10 mM KCl, 5 mM MgCl2, 1 mM DTT, pH 7.2, 303 K"}, "[3]": {"molecular_target": "T1, 441-residue human 2N4R tau", "assay": "NMR titration; 1H-15N HSQC of 15N-labeled tau (20 or 30 µM); unlabeled p23 or p23 (1-119) added up to ten-fold molar excess; 50 mM NaP, 10 mM NaCl, 1 mM DTT, pH 6.8, 278 K"}}, "data": [{"binder": "B1", "values": [{"measurement": "binding result", "setting": "[1]", "value": "binds"}]}, {"binder": "B2", "values": [{"measurement": "binding result", "setting": "[2]", "value": "binds"}]}, {"binder": "B3", "values": [{"measurement": "binding result", "setting": "[3]", "value": "binds"}]}]}
